The values that follow come from US7939292B2, “Modified heparinase III and methods of sequencing therewith” (Massachusetts Institute of Technology, priority 2000, dated 2011).

For orientation: kcat means the number of substrate molecules converted per active site and unit of time at saturation. What is called Km is the concentration of substrate that gives half-maximal velocity.

In data set [1] the test system is FGFR1. Nature of the data set: FGFR1 phosphorylation in B16BL6 tumor samples. The note with it: mouse, in vivo. On the set-up: species or system mice. On the procedure:
c. Effect of treatment of tumor with hep I and hep III in FGFR1 activation compared to PBS. Level of phosphorylated FGFR1 in tumor samples was assessed by standard immunoprecipitation followed by Westernblotting with phosphotyrosine specific antibody. Primary B16BL6 tumors were grown and treated as described earlier and at day 15 the tumor was harvested in cold modified RIPA buffer containing enzyme inhibitors and homogenized. The homogenates were past through 25-gauge needle 3 times and centrifuged. The supernatant was adjusted for protein concentration using the Bio-Rad protein assay kit (Bio-Rad). FGFR1 was immunoprecipitated with poly-clonal anti-FGFR1 antibody (Santa Cruz Biotechnology, Inc., CA). Samples were then pelleted, washed, and eluted from the beads by addition of sample buffer and boiled for 3 minutes (Kapila, Y. L., Wang, S. & Johnson, P. W. Mutations in the heparin binding domain of fibronectin in cooperation with the V region induce decreases in pp125(FAK) levels plus proteoglycan-mediated apoptosis via caspases. J Biol Chem 274, 30906-13 (1999).). After electrophoresis, the gel was transferred to nitrocellulose membrane by standard methods. The immunoblot was probed with phosphotyrosine specific antibody conjugated to HRP (RC20; Transduction Laboratories, Lexington, Ky.) and developed with SuperSignal West Pico Chemiluminescent substrate. […]

Data set [2] concerns B16BL6 melanoma. Nature of the data set: Histological examination of tumor samples (apoptosis, TdT labeling). The class given is in vivo, mice. As for the experimental part: Immunohistochemistry was done as described (Parangi et al., 1996; O'Reilly et al., 1994) with minor modifications. Briefly, tumor tissues were fixed in either 4% (vol/vol) formaldehyde overnight for von Willebrand factor (vWF) staining and terminal deoxynucleotide transferase (TdT) labeling or in Glyo-Fixx solution overnight for Ki-67 nuclear antigen staining. Tissues were embedded in paraffin according to standard histological procedures. For vWF staining, sections (5 μm thick) were incubated with 0.2 N HCl for 10 min. autoclaved in a Coplin jar immersed with Target retrieval Solution (Dako) for 15 min. and permeabilized with 2 μg/ml proteinase K at 37° C. for 15 min. Sections were incubated with rabbit anti-human vWF antibody coupled with horseradish peroxidase (HRP) (Dako). Positive staining was detected by substrate reaction with diaminobenzidine. Sections were counterstained with Gill's hematoxylin and mounted in Permount (Fisher). […] Capillary density was determined by counting the number of vWF-positive capillaries per high power field (HPF, ×200). The proliferative and apoptotic indices of tumor cells within areas of viable tumor were estimated from the percentage of cells scored under a light microscope at 400-fold magnification. A minimum of 2000 cells were counted in each animal. # indicates standard error.

The test system of data set [3] is B16BL6 melanoma cells. Nature of the data set: Lung metastasis of heparinase treated B16BL6 cells after tail vein injection. Type of data set: in vivo, mice. The note with it: cells treated 30 min at 37° C. before tail vein injection; 13 days. As for the experimental part:
We next investigated the ability of heparinase treated B16BL6 melanoma cells to metastasize to the lungs. B16BL6 cells in log growth phase were briefly trypsinized and resuspended in PBS to a final concentration of 1×10^6 per ml. Prior to injection, cells were treated with either PBS, hep I […] or hep III […] for 30 min. at 37° C. 0.2 ml cell suspensions (2×10^5 cells) were injected slowly via tail vein. Mice were sacrificed 13 days later and lungs were harvested, rinsed with tap water. The number of nodules on lung surface were counted with the assistance of a dissection microscope. * indicates p<0.05 (Mann-Whitney test).

In data set [4] the test system is Akt. Put plainly: Akt activation in B16BL6 tumor. On the set-up: species or system mice. The following applies: mouse, in vivo. On the procedure: f. Effect of heparinase treatment on Akt activation. The primary tumor was treated and processed as described above. Akt antibody and phospho-Akt antibody from New England Biolabs were used to probe the immunoblot.
The test system of data set [5] is B16BL6 melanoma. Nature of the data set: Primary tumor growth of B16BL6 melanoma in mice treated with heparinases. Type of data set: in vivo. The following applies: 0.5 mg/kg/day. An excerpt: Heparinases I and III, which have very distinct substrate specificities for cleaving HLGAGs, were employed as tools to investigate the role of HLGAGs in tumor growth and metastasis. While heparinase I cleaves at the highly sulfated regions of HLGAGs, heparinase III only cleaves at the under-sulfated regions of the polysaccharide chain, thereby rendering these enzymes powerful tools to investigate in vivo and in vitro roles of HLGAGs, in development, morphogenesis, angiogenesis etc. To examine the roles of HLGAGs in tumor growth and metastasis, we used B16BL6 melanoma as a model system and treated tumor-bearing mice with either heparinases I or III to investigate both primary tumor growth as well as tumor metastasis. Consistent with the current paradigm, heparinase I accelerated tumor growth (FIG. 8). At a dosage of 0.5 mg/kg/day of heparinase I, tumor growth was increased by about 39%. […] Inhibition of primary tumor growth by heparinase III was first observed at 2 mg/kg per day. Tumor growth was inhibited by 73% at 12 mg/kg per day, the maximum dosage tested in the study (FIG. 8).
Mice, 15 days after tumor implantation with B16BL6 melanoma, were examined. 4×10^5 log growth phase B16BL6 melanoma cells in 0.1 ml PBS were injected to the flank of C57BL/6 mice on day 1. Daily injection of 0.1 ml of PBS, heat inactivated hep III or active heparinase III (2 mg/ml, recombinantly expressed, purified, buffer exchanged with PBS, and concentrated) started at the day 4 and continued throughout the experiment. At day 7, osmotic pumps (100 μl capacity delivering at 0.5 μl per hour) containing PBS or 3 mg/ml hep III were implanted subcutaneously at a place remote from the tumor site. Mice were sacrificed at day 15.
FIG. 8 depicts the tumor volume of the tumors isolated from the mice described above. Tumor volume was measured daily after day 7 with a caliper and calculated with the formula [volume=0.52×(width)^2×(length)].

The test system of data set [6] is B16BL6 cells. Nature of the data set: Growth in mice of B16BL6 cells after heparinase removal of the HLGAG coat. Type of data set: in vivo. The following applies: HLGAG coat removed. The source says: There are two possible mechanisms by which heparinase may be acting on tumor cells. For instance, heparinase III treatment of cells may result in cells losing their unique surface HLGAG coat and this directly or indirectly may impinge on their ability to grow or metastasize. On the other hand heparinase III treatment of cells may also result in the generation of distinct HLGAG fragments, and these fragments could then directly or indirectly modulate tumor cell function. It was thought that heparinase III may function though either one of these mechanisms or through some combination of these mechanisms. To investigate the mechanisms of action further, we treated B16BL6 cells with either heparinases I or III, to remove the HLGAG coat on the tumor cell surface.
In further support of this conclusion ex vivo digestion of the HLGAG coat present on tumor cells with either heparinase, followed by centrifugation and resuspension in PBS to remove the enzyme and HLGAG fragments released from the cell surface, prior to in vivo injection results in the cells being functionally identical to controls. Thus the released tumor cell HLGAG fragments appear to play the key role in modulating tumor growth and metastasis.

Data set [7] deals with Erk-1, 2. Nature of the data set: Erk-1, 2 activation in FGF2 stimulated B16BL6 cells (immunoblot). Type of data set: cell-based. The following applies: enzyme 200 nM 30 min before 50 ng/ml FGF2. On the procedure:
a. Methods: B16BL6 cells in 10 cm culture dishes were serum starved for 48 hours before stimulation with 50 ng/ml FGF2. Cells were stimulated for 20 minutes before whole cell lysates were prepared with 1 ml modified RIPA buffer containing various enzyme inhibitors (50 mM Tris-HCl, pH 7.4, 1% NP-40, 0.25% Na-deoxycholate, 150 mM NaCl, 1 mM EDTA, 1 mM PMSF, 1 μg/ml aprotinin, leupeptin, and pepstatin, 1 mM activated Na3VO4, 1 mM NaF). Protein concentration in the lysate was determined using the Bio-Rad protein assay kit (BioRad) and adjusted accordingly for electrophoresis analysis. For the heparinase treated groups, cells were treated with either hep I or hep III (200 nM) for 30 min at 37° C. prior to addition of FGF2. The immunoblot was probed with anti-Erk-1, 2 or anti-phospho-Erk-1, 2 antibody (New England Biolabs; MA) and detected by anti-rabbit IgG conjugated to HRP using SuperSignal West Pico Chemiluminescent substrate (Pierce, Ill.).
On the technique in general: In western blotting, separated proteins are transferred to a membrane and probed.

A short description of data set [8]: Heparinase III kinetic assay of r-heparinase III and histidine mutants. The class given is biochemical. The following applies: heparan sulfate. As for the experimental part:
The activity of heparinase III was measured using a UV 232 nm assay similar to those reported for heparinase I and heparinase II (Godavarti, R., Cooney, C. L., Langer, R., and Sasisekharan, R. (1996) Biochemistry 35, 6846-52; Shriver, Z., Hu, Y., and Sasisekharan, R. (1998) J. Biol. Chem. 273, 10160-67; and Lohse, D. and Linhardt, R. J. (1992) J. Biol. Chem. 267, 781-87). Briefly, the increase in absorbance at 232 nm as a function of time was monitored under saturating substrate conditions. All assays were performed with heparan sulfate at a concentration of 2 mg/ml in 50 mM sodium phosphate, pH 7.6. The temperature for enzymatic activity measurements was kept constant at 35° C.
In parallel to the mapping studies and to confirm the results of the chemical modification experiments, each of the thirteen histidine residues present in heparinase III was mutated to alanine. The recombinant heparinase III mutant proteins were expressed, purified, and assessed for enzymatic activity towards heparan sulfate (Table 2).

Data set [9] can be described thus: SAX-HPLC analysis of exhaustive heparan sulfate digests. The note with it: SAX-HPLC, overnight 37° C. Type of data set: biochemical. As for the experimental part: Exhaustive digests of 3 mg/ml heparan sulfate in 50 mM sodium phosphate buffer, pH 7.6 were performed overnight at 37° C. for each of the mutants (20 μg protein). The reactions were loaded onto a Spherisorb S5 SAX column (Waters) and eluted using a linear gradient of 0.2-1.0 M NaCl, pH 3.5. The products were monitored at 232 nm and each of the major peaks was collected. To determine their composition, the collected fractions were analyzed by capillary electrophoresis and identified by comigration with known standards.
As a control, the r-heparinase III construct without its putative signal sequence was expressed. The concentration and purity of all recombinant enzyme preparations were determined using SDS-PAGE. The recombinantly expressed heparinase III was also compared to the heparinase III isolated from F. heparinum to ensure that they were the same molecular weight. Heparinase III (20 μg/mL) was incubated with a 4 mg/mL of heparan sulfate overnight at 37° C. The reaction was loaded onto a SAX column and the saccharide products were eluted using a gradient of 0.2-1.0 M NaCl, pH 3.5 over 30 min. and monitored at 232 nm. (A) Heparan sulfate digested with heparinase III from F. heparinum. (B) Heparan sulfate digested with recombinant heparinase III. (C) Heparan sulfate digested with the H295A mutant enzyme. (D) Heparan sulfate digested with the H510A mutant enzyme. (E) Heparan sulfate digested with the H105A mutant enzyme.

B1: heparinase I: HLGAG degrading enzyme that cleaves at the highly sulfated regions of HLGAGs (protein, UniProt Q05819 22-384, looked up)
Heparin lyase I: QQKKSGNIPYRVNVQADSAKQKAIIDNKWVAVGINKPYALQYDDKLRFNGKPSYRFELKAEDNSLEGYAAGETKGRTELSYSYATTNDFKKFPPSVYQNAQKLKTVYHYGKGICEQGSSRSYTFSVYIPSSFPDNATTIFAQWHGAPSRTLVATPEGEIKTLSIEEFLALYDRMIFKKNIAHDKVEKKDKDGKITYVAGKPNGWKVEQGGYPTLAFGFSKGYFYIKANSDRQWLTDKADRNNANPENSEVMKPYSSEYKTSTIAYKMPFAQFPKDCWITFDVAIDWTKYGKEANTILKPGKLDVMMTYTKNKKPQKAHIVNQQEILIGRNDDDGYYFKFGIYRVGNSTVPVTYNLSGYSETAR
Regarding B1, the “phosphorylation of FGFR1 in primary tumor” value in data set [1] was “opposite effect on the phosphorylation of FGFR1”. Further, the “apoptosis in tumor samples, enzyme treated tumors” value in data set [2] is “reduced apoptosis”. Further, the “ability of treated B16BL6 cells to metastasize to the lungs compared to PBS treated cells” value in [3] is listed as “marginally effected, if any”. For the same molecule, the “activation of Akt in tumor” value in data set [4] was “no change in activation of Akt”. Moreover, the “increase of tumor growth” value in [5] is “about 39%”. Besides, in [6], the “ability of treated B16BL6 cells to grow in mice compared to untreated cells” value is “no effect”. Further, the “Erk-1, 2 activation upon FGF2 stimulation” value in data set [7] was “increased Erk-1, 2 activation”.

B2: H139A: recombinant heparinase III with histidine 139 mutated to alanine (protein)
chain: MTTKIFKRIIVFAVIALSSGNILAQSSSITRKDFDHINLEYSGLEKVNKAVAAGNYDDAAKALLAYYREKSKAREPDFSNAEKPADIRQPIDKVTREMADKALVHQFQPHKGYGYFDYGKDINWQMWPVKDNEVRWQLARVKWWQAMALVYHATGDEKYAREWVYQYSDWARKNPLGLSQDNDKFVWRPLEVSDRVQSLPPTFSLFVNSPAFTPAFLMEFLNSYHQQADYLSTHYAEQGNHRLFEAQRNLFAGVSFPEFKDSPRWRQTGISVLNTEIKKQVYADGMQFELSPIYHVAAIDIFLKAYGSAKRVNLEKEFPQSYVQTVENMIMALISISLPDYNTPMFGDSWITDKNFRMAQFASWARVFPANQAIKYFATDGKQGKAPNFLSKALSNAGFYTFRSGWDKNATVMVLKASPPGEFHAQPDNGTFELFIKGRNFTPDAGVFVYSGDEAIMKLRNWYRQTRIHSTLTLDNQNMVITKARQNKWETGNNLDVLTYTNPSYPNLDHQRSVLFINKKYFLVIDRAIGEATGNLGVHWQLKEDSNPVFDKTKNRVYTTYRDGNNLMIQSLNADRTSLNEEEGKVSYVYNKELKRPAFVFEKPKKNAGTQNFVSIVYPYDGQKAPEISIRENKGNDFEKGKLNLTLTINGKQQLVLVP
B2: in [8], the kcat amounted to 68 s⁻¹. In data set [8] (calculated assuming a molecular weight of 15 kDa), the Km is 191 µM. For the same molecule, the “catalytic activity in overnight heparan sulfate digests” value in [9] is recorded as “retain their catalytic activity”.
